Assay results from the supplement of paper PMC7125110.
± gives the standard error. Fewer inactive variants are shown than the library holds.

B1: glmS ribozyme (parent)
chain: AUAAAAGCGCCAGAACUACAGAAAUGUAGUUGACGAGGAGGAGGUUUAUCGAAUUUUCGGCGGAUGCCUCCAAA

Tests used:
Conditions in all cases: with glucosamine-6-phosphate
glucosamine-6-phosphate [1] = variants of: B1; assay: self-cleavage kobs at 40 uM GlcN6P; higher = faster cleavage; RNA array
Procedure, shortened: (§1)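 In situ transcription by E. coli RNA polymerase produced barcoded ribozyme variants on sequenced MiSeq chips, and a hybridised Cy3 probe tracked them at 37 °C. Glucosamine-6-phosphate was flowed in at 40 μM to 10 mM in HEPES/KCl/Mg(OAc)2 buffer. kcat and KM were taken from weighted Michaelis–Menten fits of kobs values from exponential decay fits.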

glucosamine-6-phosphate [2] = variants of: B1; assay: self-cleavage kobs at 10000 uM GlcN6P; higher = faster cleavage; RNA array
Procedure, shortened: as §1

glucosamine-6-phosphate [3] = variants of: B1; assay: self-cleavage kobs at 160 uM GlcN6P; higher = faster cleavage; RNA array
Procedure, shortened: as §1

glucosamine-6-phosphate [4] = variants of: B1; assay: self-cleavage kobs at 640 uM GlcN6P; higher = faster cleavage; RNA array
Procedure, shortened: as §1

glucosamine-6-phosphate [5] = variants of: B1; assay: self-cleavage kobs at 2500 uM GlcN6P; higher = faster cleavage; RNA array
Procedure, shortened: as §1

| Variant | self-cleavage kobs at 40 uM GlcN6P (glucosamine-6-phosphate [1]) [s⁻¹] | self-cleavage kobs at 10000 uM GlcN6P (glucosamine-6-phosphate [2]) [s⁻¹] | self-cleavage kobs at 160 uM GlcN6P (glucosamine-6-phosphate [3]) [s⁻¹] | self-cleavage kobs at 640 uM GlcN6P (glucosamine-6-phosphate [4]) [s⁻¹] | self-cleavage kobs at 2500 uM GlcN6P (glucosamine-6-phosphate [5]) [s⁻¹] |
| --- | --- | --- | --- | --- | --- |
| G29C G41U U46C G62U | < 1e-05 | < 1e-05 |  |  |  |
| G13A G59C | < 1e-05 | < 1e-05 | < 1e-05 |  |  |
| G29C A33G G38A G40C G43C | < 1e-05 |  |  |  |  |
| G13C U49G G60U C70G | < 1e-05 |  |  |  |  |
| U30G C70U | 0.000299 ± 3.2e-05 | 0.00516 ± 0.00081 | 0.000471 ± 8.6e-05 | 0.00108 ± 0.00014 | 0.00367 ± 0.00096 |
| U30A G38C A52G U69A | < 1e-05 | < 1e-05 |  |  | < 1e-05 |
| A15U G29U G60C | < 1e-05 |  |  |  |  |
| A14U A33C G35C U55C | < 1e-05 | < 1e-05 |  |  |  |
| A15C G35A | < 1e-05 | < 1e-05 | < 1e-05 | < 1e-05 | < 1e-05 |
| A15C U49C | < 1e-05 | < 1e-05 | < 1e-05 | < 1e-05 | < 1e-05 |
| G21A G44U U57G C67A | < 1e-05 |  |  |  |  |
| C16A G60U | < 1e-05 | < 1e-05 | < 1e-05 | < 1e-05 | < 1e-05 |
| A15U A33G G38C G40C C68U | < 1e-05 | < 1e-05 |  |  |  |
| U30C G38U G43C U46G | < 1e-05 | < 1e-05 |  | < 1e-05 |  |
| U31C C34G G37A A42U U47A A52U | < 1e-05 | < 1e-05 |  |  |  |
| G29U A42G G43A | < 1e-05 |  |  |  |  |
| A14G C34U C68G | 0.000349 ± 0.00016 | 5.07e-05 ± 2e-05 |  |  |  |
| U31A G51A U56A C58U G63U U65G | < 1e-05 |  |  |  |  |
| G13C G59U | < 1e-05 |  | < 1e-05 | < 1e-05 | < 1e-05 |
| U30A A39G | 0.000182 ± 2.7e-05 | 0.0319 ± 0.014 | 0.000615 ± 0.00023 | 0.00306 ± 0.0014 |  |
| G29C G43U C67U | < 1e-05 | < 1e-05 |  |  |  |
| A24C A48C G62U G63U C70G | < 1e-05 | < 1e-05 |  |  |  |
| U30G A52C | < 1e-05 |  | < 1e-05 | < 1e-05 | < 1e-05 |

| Variant | self-cleavage kobs at 40 uM GlcN6P (glucosamine-6-phosphate [1]) [s⁻¹] | self-cleavage kobs at 10000 uM GlcN6P (glucosamine-6-phosphate [2]) [s⁻¹] | self-cleavage kobs at 160 uM GlcN6P (glucosamine-6-phosphate [3]) [s⁻¹] | self-cleavage kobs at 640 uM GlcN6P (glucosamine-6-phosphate [4]) [s⁻¹] | self-cleavage kobs at 2500 uM GlcN6P (glucosamine-6-phosphate [5]) [s⁻¹] |
| --- | --- | --- | --- | --- | --- |
| A15U G38A U56C | < 1e-05 |  |  |  |  |
| U31C G35U A39C G44U U55A | < 1e-05 | < 1e-05 | < 1e-05 | < 1e-05 | < 1e-05 |
| A14G C68U | 0.000235 ± 1.9e-05 | 0.0159 ± 0.0026 | 0.000503 ± 6.4e-05 | 0.00222 ± 0.00018 | 0.00412 ± 0.00051 |
| G13C G32C U57G C70G | 7.16e-05 ± 2.4e-05 | 9.13e-05 ± 1.7e-05 |  |  |  |
| C16A G35C | < 1e-05 | < 1e-05 | < 1e-05 | < 1e-05 | < 1e-05 |
| U31C C34U U65C | < 1e-05 | < 1e-05 |  |  | < 1e-05 |
| G29C C34A | < 1e-05 | < 1e-05 | < 1e-05 | < 1e-05 | < 1e-05 |
| A14U G63U A64U | < 1e-05 |  |  |  |  |
| G13U A53G G63A C68U | < 1e-05 | < 1e-05 |  |  |  |
| A14C G60U C71G | < 1e-05 | < 1e-05 |  |  |  |
| A12U U47G | 0.000706 ± 0.0001 | 0.0118 ± 0.002 |  |  | 0.0123 ± 0.0039 |
| A14C G35U C70U | < 1e-05 | < 1e-05 |  |  |  |
| A15G U46G A48U G59A | < 1e-05 | < 1e-05 | < 1e-05 |  | < 1e-05 |
| U30A U49A G62U | < 1e-05 |  |  |  |  |
| A15G U30G A33G A48C | < 1e-05 |  |  |  |  |
| G29A C34A G40U G41C G44U U49G C50A C71U | < 1e-05 | < 1e-05 |  |  |  |
| A14U G43A C61G U65A | < 1e-05 | < 1e-05 |  |  |  |
| G13C U45C | < 1e-05 |  | < 1e-05 | < 1e-05 | < 1e-05 |
| C16U U47G | 0.000296 ± 4.7e-05 | 0.00951 ± 0.0018 | 0.000527 ± 0.00011 | 0.00106 ± 0.00021 | 0.00142 ± 0.00037 |
| U30C G38C | < 1e-05 |  |  | < 1e-05 | < 1e-05 |
| A15U A52C G59A C70A | < 1e-05 |  |  |  |  |
| A12U U54A | 0.00273 ± 0.00049 | 0.121 ± 0.059 | 0.00304 ± 0.00084 | 0.0221 ± 0.0044 | 0.0233 ± 0.0078 |
